Test results from PMC3936261.
Where two headings read alike, the source gives them in different places.

Experiments:
Test in all cases: other fluorescence titration
[1] = target: Prdx1 protein labeled with Alexa Fluor 546 (UniProt Q06830)
[2] = target: Prdx1 protein labeled with Alexa Fluor 546 (UniProt Q06830); remark: listed apart in the source
[3] = target: Prdx1 protein labeled with Alexa Fluor 546 (UniProt Q06830); remark: listed apart in the source

Sequence of Prdx1 protein labeled with Alexa Fluor 546 (Q06830 whole entry): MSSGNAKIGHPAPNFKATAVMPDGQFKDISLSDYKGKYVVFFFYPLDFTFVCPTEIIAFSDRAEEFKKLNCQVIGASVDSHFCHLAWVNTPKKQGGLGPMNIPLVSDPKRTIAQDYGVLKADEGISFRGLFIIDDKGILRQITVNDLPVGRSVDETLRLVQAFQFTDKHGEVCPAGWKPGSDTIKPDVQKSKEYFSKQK

- Kd [1]: 215 nM
- Kd [2]: 261 nM
- Kd [3]: 210 nM
Substance: MKP-1 protein labeled with QSY 35 (from UniProt P28562 1-367) (enzyme)
